Assay: Peptide depletion (degradation or adsorption) during the experimental period, by HPLC and 125I-labeled peptide
Format: physicochemical
Settings: HPLC and 125I-labeled peptide; concentrations above 0.1 )M

## dynorphin A: control peptide purchased from Peninsula Laboratories
  depletion (degradation or adsorption) during the experimental period: No significant depletion

— EP0459978B1, “CLASS I MHC MODULATION OF SURFACE RECEPTOR ACTIVITY” (THE REGENTS OF THE UNIVERSITY OF CALIFORNIA, priority 1989, dated 1997)
